How the values were obtained:
[1] = target: human TNFα (Tumor Necrosis Factor-alpha), soluble (human) (UniProt P01375); experiment: cell-based or functional assay
[2] = target: monkey (cynomolgous macaque) GST-TNFα (cynomolgous macaque) (UniProt P79337); experiment: ELISA, plate coated with 2 µg/ml monkey (cynomolgus macaque) GST-TNFα, HRP goat anti-human IgG detection
[3] = target: transmembrane mutant TNFα expressed on the surface of CHO cells (UniProt P01375); experiment: cell-based or functional assay
Chain of transmembrane mutant TNFα expressed on the surface of CHO cells (P01375 whole entry, change not shown, form in doubt): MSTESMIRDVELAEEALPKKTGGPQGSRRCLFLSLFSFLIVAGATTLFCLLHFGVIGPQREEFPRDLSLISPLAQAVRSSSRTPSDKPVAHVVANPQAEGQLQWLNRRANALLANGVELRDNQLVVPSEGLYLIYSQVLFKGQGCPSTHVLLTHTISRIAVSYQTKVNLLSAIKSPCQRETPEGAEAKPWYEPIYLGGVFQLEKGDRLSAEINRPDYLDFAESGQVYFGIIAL

Chain of human TNFα (Tumor Necrosis Factor-alpha), soluble (human) (P01375 77-233): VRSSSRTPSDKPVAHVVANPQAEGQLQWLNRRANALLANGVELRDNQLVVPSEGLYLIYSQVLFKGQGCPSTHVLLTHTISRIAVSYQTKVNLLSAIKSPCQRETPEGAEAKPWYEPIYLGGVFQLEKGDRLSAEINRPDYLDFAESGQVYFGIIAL
Chain of monkey (cynomolgous macaque) GST-TNFα (cynomolgous macaque) (P79337 77-233): as the sequence (P01375 77-233) above, with L37V, R44T, T72N, R138L counted along it

| EC50 (read off the curve) [2] [ng/mL] | ADCC (%) [3] [%] | CDC (%) [3] [%] | Substance | IC50 1 hr Pre-incubation, TNF induced apoptosis in MCF-7 cells [1] [nM] | IC50 18 hr Pre-incubation, TNF induced apoptosis in MCF-7 cells [1] [nM] | In vivo Potency (IC50), ALT, hTNFα/D-GalN hepatic injury in mice [1] [nM] | In vivo Potency (IC50), human TNFα-induced IL-6 in mice [1] [nM] |
| --- | --- | --- | --- | --- | --- | --- | --- |
| 3 |  |  | Etanercept (Fc fusion) | 0.0034 | 0.0022 | 27 | 27 |
|  | 2 | 2 | irrelevant human IgG1 control antibody |  |  |  |  |
